# Literature values as cited in patent publication US8791066B2 (Novo Nordisk A/S, priority 2004, dated 2014).
substance,measurement,setting,value
GLP-1(7-36)amide,time until peak concentrations return to baseline / cleared from the circulation,administered subcutaneously,≤ 90 min
same,time to complete clearance,in vivo,12 to 13 min
